23 sequences from the DeepSol protein solubility set can be followed below.

This series can be described thus: soluble on expression in E. coli; label from the status in PepcDB or PDB records.
Take “GPGSMAAIGGGSGDIEELLKQITNHPGVQGIIIVNTDGIPIRHTFQEHSRLLAVQYSALFQSLAMKARNAVLEIDNNNELLFLRVRTKKHEVLVAPDTKYLLIVIQQVESGDAVPNANGVSA”: the “soluble on expression in E. coli” value is “not soluble”.
For the sequence “GPGSMADNEEVPPSGPRMTREETDELVRRLYDQQMERAARREEERQRQLARPFCSSRRIKKDEEENLVRRIYDVQRERFQQSKEERERRLTLELQSKDKKLPESEIQDQVDRIYNQEVAKSKARREELQKRYLPEVPPKTIGKKQLKESVERLFRVDYVKRDEELFKKHVYPYDPPTTKISRTDVEAMANRLSRRGS”, the “soluble on expression in E. coli” value is reported as “not soluble”.
The same measure for “GPGSMAETTIGFRCQDFVLVAAAGLNAFYYIKITDTEDKITELDSHKVVACAGENGPRTHFVEYVKCNMALKKMREHGRMISTHATASFMRNTLAGALRSRDGLYPVNCLLAGFDVPASAEDDVATGAHLYYLDYLGTLQEVPYGCHGYGAPFVTAMLDRMWRPNLTAQEGVELMQKCCDEVKKRVVVSNNTFICKAVTKDGVERVQSVS”: “soluble”.
As for “GPGSMALATTGYPALASSHSFANASTSVMTASAMAVVRRAATTTGASAATTTPQVVHYSKLGMDGFTDIKFNTAADELLELVETKVDALDSAAVEDVSCNGGVLTLETTDRGTFILNKQAPNVQLWLSSPISGPHHYDMITVTQGGHEKVSWKSDHDGHDLVKKLEEELTEVLGTDFKV”, the “soluble on expression in E. coli” value is given as “soluble”.
Next, “GPGSMASNITAERYEQLKKERTFHKFTYRGLEIDPLLALSEEEFKALVHARARRNMNRHADRRPPVLLKRLREAKKHVKVGEKPKAVKTHLRDVVITPEMVGSVVAIYNGHQFNAVEIKGEMIGHYLGEFSMSYRPVLHGRPGVGATHSSRFIPIK”: “soluble”.
Next, “GPGSMCKLHVKRTAAHSSCAVTKDNFNAIGYGARLVFKICNIADCIVRNGESNRVLSVSSTIMSMSVIHGGITIQTIPVHCVFNYELCNPLRMAHVDRQKCAPGYVVSDPLPEINEYSDADVVIKNLLSAHSLHDAHEKNAFTALVRAMISDRDMQKLGGNTEADQYALIGVFLILYGPGSIKIANQENELVPKKHVDYCGKKQIMNLTRKNHDT”: “not soluble”; “GPGSMDVYRQAAEIVGIVREGNGTAKALCLRKDMQKKKQTYAVVCETLRHYELLEDVLEVAEFFKYYPQANHEFAMCMAYDVVLGKGVNTHNDSTARAVSHSASYLREAYWQVRKHHVIPPRSSEKLDDEVAADTEGGARGKRRSGDSVSSSPSLQLPRYARVNTLKISVEELVSRLRRSAEVRKRARDAKDNDGDAAASSHPQQQNGDKRATRRASSRPHRPLPEFTQDPVVPHLLVFPPGTDLHAHPAVRSGQLILQDRASCLPAAVLLDAVPVEVIEGDTAGSSKGRKKAKGGTALGKEKGRGNETDAAARRPLEYVVDACAAPGNKTTQLAALGAPHIKIMATERDERRADLLSKRVASLGAADYVNVVSMDFFQLSSDDRAATEGILLDPSCSASGVMTRVDVALQHHHHHHHEQQRKGKARQADRRVSLLQGSRRGSHHEDADRNAAEEGQLDDGDREETANSGAINPAAQGNEFSMKEERVEKLARLQRKLLAHSLLSFDNCRTVVYSTCSVHEEENEEVVRQVLDDERVKARGWRLSNIMPNTWKTRGAEREGEEHPLRFTIRCDPATEATNGFYVARFDRVC”: “soluble”; “GPGSMENKDVATSWDYNSAEIGEFVPNSCTGTHFPNGIACAPWFQQQVTSQPHLCSSEFASSVESVGGPACRVGSEGSDYCFMNKSVCRNEEEGAEEVEGNEGESNLRWGMHIHPAALRAVQASSREVVQGLIRDKELLCSQFGTMQQNIPLAITWHDTTAPSPNQTLASTFTPLPHKKRSRDLVTLLSGISPDWEAAEEVGGASAAAHVGGLEIQRKRFRVDNPTIGSAAYEVSKAATAASPKPWIKARQKRVREEGDEDVNVNVEWGRGRDGNENSGR”: “soluble”.
Next, “GPGSMEVNATLIDCCDPQKPSRVLFHFLILDAPSPSNLPTYIKELQHRGVRHLVRVCGPTYDATLVKSRGIDVHSWPFDDGAPPTRAVLDSWLKLLDTELARQQEDPSVPPPTIGVHCVAGLGRAPILVALALVEYGNVSALDAIALIREKRKGAINQTQMHWITKYKRRHQGAGCVIM”: “soluble”.
Consider “GPGSMEYVGALYKDYGELLSTAQNSFLNVQSDVEGVEDVKNICARLHISIHRWEHSEELYAVRNQLHLQTQVLKAHSDHSSRVLQECVQRDELIKMHTEKSALLATKLRKQSSEVDKLQKECDKLDRKIAKRSEVAQKDLDAMAVKSTATVLSLTSQFFKVMHKNGAFIADRFSPDRAGVGAHDFDTASDDAVTGTLRRLHSVRSEMSSVAPSAVYGQNYNTFHPSEADTRVSDGARNSGIPLRYETSVPPAMSA”, for which the “soluble on expression in E. coli” value is “not soluble”.
Regarding “GPGSMKALVRRFGPEPSVIEECSADQEWEKPCLASTEDTAVAPGDSVKDTRNNLSGSEGLANGRAESSQRAVDVSSFIRLFSVEWCLTEEQQAENSRRLDAFFHPHPAPPSCQPAPLLPSVQTCGETVDPDIWSLPEVSQEELQRWREEKLSLSDRLVWRGRKTIKQVNMRRM”, the “soluble on expression in E. coli” value is “not soluble”.
Take “GPGSMKKELRVGVLISGRGSNLEALAKAFSTEESSVVISCVISNNAEARGLLIAQSYGIPTFVVKRKPLDIEHISTVLREHDVDLVCLAGFMSILPEKFVTDWHHKIINIHPSLLPSFKGLNAQEQAYKAGVKIAGCTLHYVYQELDAGPIIMQAAVPVLREDTAESLASRILAAEHVCYPKGVKLIAQDKIKLCDDGTVQCTGEDELFLFQENF”: the “soluble on expression in E. coli” value is listed as “soluble”.
Regarding “GPGSMKTIRKRMRLSVSGRSSARSGMSSDTRLPAAVLERETKVINYSHSTSRAMAAQLENCVRLIRGYQASLQYCNEEIEGALLSLGVATTHSLISSITSVMEGLDTLSGVCRAMHEGYNEEVRHREDLHTSLTGAYISLKELHEATENELREVVAERDRKVAAFGKAVAYVEAVVAERMLWQEANGYNCAGLPVVEMSFSESCHEALRKFDDTVSEAQGEGHSNAESLLASTDVPQTLAKRWDNVENLRHTNGLPSARVLYVPPKDEVELLRNVLEMGTGDRALMWDVQQRERALQDSLTNIHVFGHSCLKALHSMREELAEFRQWFLTIDRKCEPIVVAMRKLGNGVCGLSSASDKNLPH”, the “soluble on expression in E. coli” value was “not soluble”.
Regarding “GPGSMLASTPGSNFGGAVASSNNNGGQQPQRRMHPIRPLTIKQMLEAQSVGGGVLVVDGREVTQATVVGRVVGYENANMASGGGAITAKHFGYRITDNTGMLVVRQWIDADRMQEPLAINTHVRASGTVNVWQQTPIVTGTVVSMADSNEMNYHMLDAILTHFRLTQGNKRAPSSGVSIQNTASAVGMHNMLPGGDNKVLLTDLLVSFIKQHGSSGAGMSMDELTTSAQRYGFTHGDVRTAMRTLAAEGKVYQTHDNRFNI”, the “soluble on expression in E. coli” value is “soluble”.
Next, “GPGSMLHDAPWHLSLAHRCLAPHGVVAIMGYATRVCVVAPEAARRDADDFMEDLQRTAREAAKMKDSKELRVALGRAIDISSSLDAGHADMYFPFRSTKRRWFTSEYAATPAQLAASYRALPEYQLLSREMPRYRQALISGRQKVQVGEETEKDEPVNVFRRQHGAEPLEVLQGCLQAQVMSLHGRNTPAMPPLRVQVRHFIITCSSRSVNAASEPFQLRSLRREIPQLK”: “not soluble”; “GPGSMLRPSSLCRVAFPVHRDTTKTPRLVKEVGSWLYKRETVESFRAWCKANNVRGSGNVKVVSTMHYARCLRAARHLRPGQAIITLPHTACFNFLVVAKEMYGVSGKGGTVSHNFPLEVNWMNYDERCSFLRSASMSELTTAGWMCRIASLEESRFTPYIHWLLEDTRGRDGVANGVSRERGEESGLVDHYFSEMATDACEDPEEFLENLFRSFAALHLRAVPIESAAIRLFLPGTNFFKAKVDEMFVPTLMPLIDAVPQLEDGLHNTAVEYFPFSDEETLLKQCKDLVLSEGGTNEMRELRRRCLAQEQGAGAFFALRALCPIEEGDYLYVRGVPKLGAPEQESMTVRVMEANRLLNNE”: “not soluble”.
The same measure for “GPGSMLSERACLHPGRALKCERFLAIFPQNVKEMLLQNPLFVQNSRVAERSIIRHNQFLLACYMTYLILRNDENAEGQALKYINFMPRNEGNFEQLISNMNGVLDGAAACQSAQAALSLQFGITQAEVRPLLQWSMAMIFSRMAPIDHRWTLQCAFKNTPFAPAFDIRGPDDDANMVKEPIAFLCPVIDMCNHSDHENVALMVPQRTDSSHESVICLRSLRDIDRGEELTMTYGGSPTELRVIWGMQRVL”: “not soluble”; for “GPGSMMREAGRQRRRNADSDESSSEDEQQQTTTTVQETTAAAPPARVRAKAPAAAVVSAPSMTLHADPTATQVTAPSAVSAETADSEGGSNEDAPSSAAAAAPPNEFSEEMEAIDYDALTYAALLDIMNRASRPVIEELMAQREQQVESTMQQQQNQRVERFLDVATTSSATAAEANGSSAEEEAAEGYRYNTMLTRLFEALNRNNEGSAMTERNQLPVPILERMGKKKTVIANFGRICDAFHRPMEDVKDFIEKELSIRGNLDSNNALILKFEIRKQTDFDRVLIKYLDEYVKCNSCHRIDTTLTKDGRRLELRCNVCTATRTVTAAGTATFSAQIEKRSRQRAAMIL”: “soluble”; for “GPGSMNIRQRKSERHKEVLRKLSQNGGNKNCFDCGMRGPLYVVSDFGILVCSGCSAVHRSFQHKVKGITMSEFTDDEIARFSVSGNDRARKVWLSTFHDQLPRSGNVMALKDHVHVVFEERRFWSAQELSA”: “soluble”.
Regarding “GPGSMPERMTAALAARLVASPLKYVLLDIDGVIWCGGHVIDRVPETLQYLRGQGKQIRFLSNNASFSREQLMQSLKAKGIEGVTVEECYNSAYTAALRLRQMLGKADVPGEEPLVHGNVFVIGEQGLHDELQQVLAPGFITYGVELHDAVRAGGYDTDALGSAWRVPCLPPPQKRLVVCNGKACRMVQAGTNSAEKISLSDLNAAAVVVGLDKHFNIVKLAYGSLVLQGPPKDLREESYTPPLFVATNEDPQLPVGRDGTMIPGAGSMVSALCTAVGKRPDAVCGKPHKDMANILFAAEGVTNPREECIMIGDRLTTDVAFGNAAGCQSMLVLSGAEGLADVEEAEKQGRTALVPKYVAESLACFLPL”, the “soluble on expression in E. coli” value was “soluble”.
Next, “GPGSMPKEPILHAELREWLEEYRRHRAFNPIAWIEEKCTKLNEYMRNNKLRGCVTNVSGGVDSAVVLSLCSRAQRMEGSPIVRNVGICQPICSSAWALERGRENIRAAGAEEVVVDQTDIHRQLSLSVEAAVGIDGKDFARGQLRSYMRAPVGYYVAQLCSQSGTPTIVMGTGNMDEDGYLGYFCKAGDGVVDVQLISDLHKSEVFKVARELGVPENTLQAAPSADLWDGQTDEEELGFPYDFVELYTGYFLKLNNGEREMKKKSLSAEARHQFEAYMKSCEETHCRNAHKLNGIVNL”: “soluble”.
For “GPGSMPPKSAVKKVDSAAATGKRKKLSFAESTVKAAAAAIQTTHVNVPVRAAAKHAPLAAAPRKKGQNAKKTTATTSSAARQRAATDLKRSGIVKAKRAEEEVAAPPVPSDEENSRDDEDDMLNGGAAVDSDTDDLSDMADRTPSDDELGAGKQASSSASRQRDSNGTVEPYRAVRLSFLPPEFQEPQLYKFLNQFGATVLNCFCVRSKRTHRSRGIAYVEFDKESAIPLVVEECNGMVLGGKAVRARAVTMRRRMPSRQMVDRRRALAYAYKTRGAPLKQHDVRRKGPVGLLIKAVRTEKNNNNYLKSLGIDFQTDFFQSQLATLPPVLLKKKRSRSKKSEKGTVATAGMAKAVVKTTDIATVASKSSPKRATRKAPATKTK”, the “soluble on expression in E. coli” value is recorded as “soluble”.
The same measure for “GPGSMPRYYTPHEVRAHCFEDDAYVSINGKVLDITPLIQMYQGTRYASLLQPLILAAGTDMTHLLDKKTMDFKTCIDPETGFRTYAQPFGRFAHTPTVLPDSSIDLSYEVPWWQDERYVIGQLTRKTRKIRIVNTLNGHEHTLEVCSEETLREIVMTRYLSHNAHALSYTWRRLDSEPRDLDMDKTLDENGVLDESEEFESLGLNADYYIPALHLYYDDDLTEA”: “soluble”.
